Positions count from the first letter of the chain named. Where two headings read alike, the source gives them in different places. Where only a bound is given, the exact number is not on record here.

In test [1] the target is T1, human Sp35 protein expressed on transfected cells (human, UniProt Q96FE5 40-620).
T1 construct: also called huSp35; hLINGO-1
T1 sequence: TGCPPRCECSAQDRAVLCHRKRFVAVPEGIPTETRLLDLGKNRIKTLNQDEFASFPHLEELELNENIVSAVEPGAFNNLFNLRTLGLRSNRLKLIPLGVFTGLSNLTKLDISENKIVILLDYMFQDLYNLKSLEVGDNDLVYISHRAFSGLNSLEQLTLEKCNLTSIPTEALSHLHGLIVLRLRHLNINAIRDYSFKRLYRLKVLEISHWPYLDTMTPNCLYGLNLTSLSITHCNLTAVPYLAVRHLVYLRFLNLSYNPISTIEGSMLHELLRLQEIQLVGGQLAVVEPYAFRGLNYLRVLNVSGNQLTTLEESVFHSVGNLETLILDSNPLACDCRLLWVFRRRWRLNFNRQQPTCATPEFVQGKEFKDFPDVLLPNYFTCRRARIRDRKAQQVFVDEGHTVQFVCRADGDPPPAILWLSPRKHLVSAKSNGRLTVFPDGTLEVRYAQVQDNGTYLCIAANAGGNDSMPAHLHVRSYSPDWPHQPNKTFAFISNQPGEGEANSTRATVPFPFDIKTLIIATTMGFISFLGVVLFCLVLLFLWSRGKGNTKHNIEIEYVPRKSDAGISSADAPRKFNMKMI
Description: FACS, stable CHO. (A flow cytometer gives signals particle by particle.)

Test [2] has as its target T2, mouse Sp35 protein expressed on transfected cells (mouse, UniProt Q9D1T0 36-614).
T2 construct: whole, on cells; also called mSp35; mLINGO-1
T2 sequence (looked up): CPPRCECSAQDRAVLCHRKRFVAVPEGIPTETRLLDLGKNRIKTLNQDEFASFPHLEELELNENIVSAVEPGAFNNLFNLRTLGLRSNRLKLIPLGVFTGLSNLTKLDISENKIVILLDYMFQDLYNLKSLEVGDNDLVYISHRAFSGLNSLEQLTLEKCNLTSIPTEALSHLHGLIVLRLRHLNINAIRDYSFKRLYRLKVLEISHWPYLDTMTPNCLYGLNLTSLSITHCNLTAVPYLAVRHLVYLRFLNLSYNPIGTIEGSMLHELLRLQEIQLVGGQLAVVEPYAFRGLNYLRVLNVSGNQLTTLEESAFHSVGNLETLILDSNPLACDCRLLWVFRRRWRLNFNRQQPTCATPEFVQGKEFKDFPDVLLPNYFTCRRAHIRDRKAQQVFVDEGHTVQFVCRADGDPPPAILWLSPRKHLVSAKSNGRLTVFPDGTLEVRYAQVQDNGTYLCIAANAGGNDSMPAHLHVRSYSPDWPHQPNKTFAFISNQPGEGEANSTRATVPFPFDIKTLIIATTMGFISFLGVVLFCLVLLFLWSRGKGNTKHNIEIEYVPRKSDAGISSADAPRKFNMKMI
As to the kind of experiment: FACS, stable CHO.

The target of a further test is T3, Ig region of Sp35 (Homo sapiens (Human), UniProt Q96FE5 423-538, limits assumed).
T3 sequence: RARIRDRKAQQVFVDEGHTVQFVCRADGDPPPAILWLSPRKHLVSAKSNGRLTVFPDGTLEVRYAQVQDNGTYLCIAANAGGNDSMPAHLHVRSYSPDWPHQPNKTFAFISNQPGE
Description: ELISA. In general terms: In an ELISA, binding on a coated surface is turned into a signal by an enzyme label.

In test [3] the target is T4, mouse Sp35 in cell lysate (immunoprecipitation, Western) (mouse, UniProt Q9D1T0 36-614, limits assumed).
T4 construct: also called mSp35; mLINGO-1
T4 sequence (looked up): T2 sequence (looked up)
Description: IP.

Test [4] addresses mouse Sp35 protein expressed on transfected cells (mouse) (UniProt Q9D1T0). Description: FACS, stable CHO.
In test [5] the target is T4, mouse Sp35 in cell lysate …. Description: IP. Here is the method: (§1) To perform the immunoprecipitation, COS-1 cells expressing Sp35, fused to a hemaglutinin (HA) tag on the N-terminus, were produced by transiently transfecting COS-1 cells with a DNA construct which expresses the full-length Sp35 protein with an HA tag. Cells were harvested 48 hr after transfection and were lysed in 1 ml lysis buffer (50 mM HEPES, pH 7.5, 150 mM NaCl, 1.5 mM MgCl₂, 1 mM EGTA, 1% Triton X-100 and 10% glycerol) for 30 min at 4° C. After centrifugation at 14,000×g for 15 min, the supernatants were incubated with ProteinA/G-Sepharose beads (Santa Cruz) at 4° C. for 1 hr, and then incubated at 4° C. for 1 hr with either the 1A7 or the 2F3 anti-Sp35 murine monoclonal antibodies. The beads were washed 3 times with lysis buffer, boiled in Laemmli sample buffer, subjected to 4-20% SD S-PAGE, and analyzed by Western blotting using an antibody which recognizes the HA tag. As shown on the SDS-PAGE gel, monoclonal antibodies 1A7 and 2F3, immunoprecipitated human and murine Sp35 (FIG. 1). […] Similarly, monoclonal antibodies 1G7, 2B10, 2F3, 3P4C2.2D2, 3P4C8.2G9, Li01, Li03, Li05, Li06, Li07, Li08, Li11, Li12, 7P1D5.1G9 and 3B5.2 immunoprecipitate human or mouse or human and mouse Sp35 (See Table 3B and 3C). Additionally, Li08 immunoprecipitates AP-Sp35 and monoclonal antibodies 1B6.4 and 3E3.1 immunoprecipitate endogenous Sp35 (See Table 3B).
This is another data set of the same source.

Test [6] concerns the target T5, human Sp35, full-length, in cell lysate (immunoprecipitation, Western) (human, UniProt Q96FE5 40-620).
T5 construct: also called huSp35; hLINGO-1
T5 sequence: T1 sequence
As to the kind of experiment: IP. Here is the method:
as §1

Test [7] deals with T6, Sp35-Fc fusion protein (human Sp35 residues 1-532 fused to hinge and Fc of human IgG1) (human, UniProt Q96FE5 40-538).
T6 construct: ran as a dimer under non-reducing conditions; also called LINGO-1-Ig; not shown: hinge and Fc region of human IgG1
T6 sequence: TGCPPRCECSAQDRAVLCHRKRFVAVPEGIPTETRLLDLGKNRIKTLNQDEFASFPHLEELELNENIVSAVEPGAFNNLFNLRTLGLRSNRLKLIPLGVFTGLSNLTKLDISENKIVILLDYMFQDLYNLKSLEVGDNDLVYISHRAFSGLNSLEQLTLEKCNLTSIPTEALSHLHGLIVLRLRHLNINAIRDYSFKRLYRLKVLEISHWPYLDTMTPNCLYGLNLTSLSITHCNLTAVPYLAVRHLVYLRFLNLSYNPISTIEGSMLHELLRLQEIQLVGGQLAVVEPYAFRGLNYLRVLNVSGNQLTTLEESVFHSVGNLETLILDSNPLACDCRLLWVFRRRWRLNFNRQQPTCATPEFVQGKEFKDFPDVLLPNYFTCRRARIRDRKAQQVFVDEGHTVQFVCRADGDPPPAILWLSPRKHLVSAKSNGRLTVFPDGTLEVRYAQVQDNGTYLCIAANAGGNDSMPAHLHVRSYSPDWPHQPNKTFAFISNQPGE
Description: ELISA. As to the method: In order to determine which regions of the Sp35 polypeptide were bound by the various hybridoma- and phage display-derived monoclonal antibodies produced in Example 2, an ELISA assay was performed using a panel of truncated Sp35 polypeptides, each fused to the hinge and Fc regions of IgG1 by the methods described in Example 1. […] Ovalbumin and BSA were used as controls. […] The affinity of these latter antibodies for mouse and rat Sp35 was restored to the level seen using human Sp35 when amino acid 419 of the mouse or rat Sp35 is changed from histidine (H) to arginine (R). Arginine is the amino acid at position 419 in human Sp35. […] AP substrate was then developed by 10 mg/ml 4NPP in 0.1 M Glycine, 1 mM MgCl₂, 1 mM ZnCl₂, pH 10.5, and read at O.D. 405.

The target of test [8] is T1, human Sp35 protein expressed on …. As to the kind of experiment: IHC, transfected cells.

B1: 1A7 Fab (Fab, V domains shown)
VH: QVQLVQSGPELKKPGETVKISCKASGYTFTNYGMNWVKQAPGKGLKWMGWINTDTGEPTYTEDFQGRFAFSLETSASTVYLQFNNLKNEDTATYFCAREGVHFDYWGQGTTVTVSS
VL: QIVLTQSPAIMSASPGEKVTMTCSASSSVSYMHWYQQKSGTSPKRWIYDTSKLASGVPARFSGSGSGTSYSLTISSMEAEDAATYYCQQWSSNPFTFGSGTKLEIK
notes: Fab of murine IgG1/kappa 1A7
With B1, in test [1], the “FACS on stable CHO” value was ~1 nM.

B2: 3B5.2 monoclonal antibody (ATCC PTA-8106) (antibody, mouse IgG1, V domains shown)
VH: QVQLQQPGAELVRPGTSVKLSCRASGYTFTSYWMHWVKQRPGQGLEWIGVIDPSDSYTNYNQKFRGKATLTVDTSSSTAYMQLSSLTSEDSAVYYCARPYYGSHWFFDVWGTGTTVTVSS
VL: B1 VL with S28R, M32V, I47L, K52N, S62G, S64N, S92T, F95P, S99G
notes: murine IgG1/kappa; VL is named for 3B5.2; also called 3B5.5
Consider B2, for which the “FACS on stable CHO” value is 0.4 nM in test [2] and < 0.4 nM in test [1]. Also, the binding result in the test with Ig region of Sp35 is “no binding”.

B3: 80-D02 (Dli34) Fab (Fab, V domains shown)
VH: EVQLLESGGGLVQPGGSLRLSCAASGFTFSNYEMYWVRQAPGKGLEWVSGIYSSGGITVYADSVKGRFTISRDNSKNTLYLQMNSLRAEDTAVYYCARAAILDWYFDLWGRGTLVTVSS
VL: DIQMTQSPSSLSASVGDRVTITCHASQDISNYLSWYQQKPGKAPKLLIYDAFNLETGVPSRFSGSGSGTDFTFTISSLQPEDFATYYCQHYDNLPFTFGPGTRVAIR
notes: human
Turning to B3, in [3], the binding result is recorded as “binds”.

B4: D05 (full-length antibody with Li05 variable region) (antibody, V domains shown)
VH: EVQLLESGGGLVQPGGSLRLSCAASGFTFSAYAMGWVRQAPGKGLEWVSSIVSSGGYTDYADSVKGRFTISRDNSKNTLYLQMNSLRAEDTAVYYCAREGDHNAFDIWGQGTMVTVSS
VL: QSVLTQPPSVSVAPGQTARISCGGDNIGSKSVHWYQQRPGQAPVLVVYDDYDRPSGIPERFSGSNSGDTAILTITRVEVGDEADFYCQVRDSRTEERVFGGGTKVTVL
Regarding B4, in [4], the FACS on stable CHO worked out at 5.5 nM.

B5: 80-A08 (Dli33) Fab (Fab, V domains shown)
VH: EVQLLESGGGLVQPGGSLRLSCAASGFTFSIYPMFWVRQAPGKGLEWVSWIGPSGGITKYADSVKGRFTISRDNSKNTLYLQMNSLRAEDTATYYCAREGHNDWYFDLWGRGTLVTVSS
VL: DIQMTQSPGTLSLSPGERATLSCRASQSVSSYLAWYQQKPGQAPRLLIYDASNRATGIPARFSGSGSGTEFTLTISSLQSEDFAVYYCQQYDKWPLTFGGGTKVEIK
notes: human
In the case of B5, in [3], the binding result is “binds”.

B6: 30-C12 (Li01) Fab (Fab, V domains shown)
VH: EVQLLESGGGLVQPGGSLRLSCAASGFTFSKYQMTWVRQAPGKGLEWVSSIYPSGGNTVYADSVKGRFTISRDNSKNTLYLQMNSLRAEDTAVYYCASGTTEAVFDYWGQGTLVTVSS
VL: DIQMTQSPSSLSASVGDRVTITCQASQDISNYLNWYQQKPGKAPKLLIYDASNLETGVPSRFSGSGSGTDFTLTISSLQPEDFATYYCQQADRFPAVTFGGGTKVEIK
notes: human, kappa; also called Dli01
In the case of B6, the binding result in test [5] and in test [6] was “binds” each time.

B7: 30-B01 (Li11) Fab (Fab, V domains shown)
VH: EVQLLESGGGLVQPGGSLRLSCAASGFTFSSYAMYWVRQAPGKGLEWVSSISTSGGYTGYADSVKGRFTISRDNSKNTLYLQMNSLRAEDTAVYYCARDTSDNDYYYMDVWGKGTTVTVSS
VL: DIQMTQSPSSVSAPIGDRVTITCRASQEIANYLAWYQQKPGKAPKLLIYDTYTLQTDVPPRFSGSGSGTDFTLTISSLQPEDTATYFCQQADIFPLSFGGGTKVEIK
notes: human, kappa; also called Li011; Dli11
As to B7, in test [5], the binding result is on record as “binds”.

B8: 2F3 monoclonal antibody (antibody, mouse IgG2a, V domains shown)
VH: EVKLEESGGGLVQPGGSMKLSCAASGFTFSDAWLDWVRQSPEKGLEWVAEIRSKANNHATNYAESVKGRFTISRDDSKSSVYLQMNSLRAEDTGIYFCTPSFAYWGQGTTVTVSS
VL: DIQMTQSPASLSASVGETVTITCRASGNIYNYLAWFQQKQGKSPQLLVYNAKTLPDGVPSRFSGSGSGTQYFLKINSLQPEDFGSYYCQHFWAIPYTFGGGTKLEIK
notes: murine IgG2a
For B8, the binding result in test [6], in [7] and in test [8] was “binds” throughout.

The values are drawn from US20210395360A1 (published 2021).
